The target in assay [1] is Transferrin Receptor 1 (TfR1/CD71) on human colorectal cancer cells (HT29: high expression); LOVO: low … (human (endogenous in HT29 and LOVO), UniProt P02786 1-760). Description: cell-based or functional assay.
For assay [2], the target named is T1, Recombinant human TfR1-Fc protein (TFR-H5264, Acro Biosystems) (human, UniProt P02786 101-760).
T1 construct: Transferrin receptor 1 (TfR1/CD71), human; As recalled, the supplier's TfR1 constructs hold the extracellular part (about Cys89-Phe760); source: bought: Acro Biosystems
Description: SPR; Biacore 8K; recombinant human TfR1-Fc immobilized on the sensor chip; TR01 at 62.5–1,000 nM; as printed: 'acidic conditions (pH 2.0) using a running buffer containing TfR1 at 30 μg/mL'; global fit of association and dissociation curves. The note with it: both partners purified.

T1 sequence (P02786 101-760): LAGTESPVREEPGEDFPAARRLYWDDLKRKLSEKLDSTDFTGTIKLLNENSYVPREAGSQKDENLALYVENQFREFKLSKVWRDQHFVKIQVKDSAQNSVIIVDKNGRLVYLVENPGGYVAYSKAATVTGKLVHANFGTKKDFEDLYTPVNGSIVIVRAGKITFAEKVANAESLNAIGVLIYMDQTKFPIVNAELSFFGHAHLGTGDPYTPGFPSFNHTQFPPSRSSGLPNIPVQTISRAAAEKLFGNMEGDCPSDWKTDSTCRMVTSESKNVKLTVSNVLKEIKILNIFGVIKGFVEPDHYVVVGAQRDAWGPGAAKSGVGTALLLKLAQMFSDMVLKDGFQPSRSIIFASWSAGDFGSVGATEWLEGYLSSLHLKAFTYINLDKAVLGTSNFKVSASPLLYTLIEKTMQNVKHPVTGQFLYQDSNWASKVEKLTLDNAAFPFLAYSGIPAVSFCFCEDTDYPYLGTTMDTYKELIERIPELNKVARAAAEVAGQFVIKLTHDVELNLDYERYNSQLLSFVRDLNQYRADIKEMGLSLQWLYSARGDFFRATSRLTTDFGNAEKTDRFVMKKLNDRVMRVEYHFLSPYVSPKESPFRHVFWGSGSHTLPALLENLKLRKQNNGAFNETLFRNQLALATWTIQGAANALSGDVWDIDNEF
Sequence of Transferrin Receptor 1 (TfR1/CD71) on human colorectal cancer cells (HT29: high expression); LOVO: low … (P02786 whole entry): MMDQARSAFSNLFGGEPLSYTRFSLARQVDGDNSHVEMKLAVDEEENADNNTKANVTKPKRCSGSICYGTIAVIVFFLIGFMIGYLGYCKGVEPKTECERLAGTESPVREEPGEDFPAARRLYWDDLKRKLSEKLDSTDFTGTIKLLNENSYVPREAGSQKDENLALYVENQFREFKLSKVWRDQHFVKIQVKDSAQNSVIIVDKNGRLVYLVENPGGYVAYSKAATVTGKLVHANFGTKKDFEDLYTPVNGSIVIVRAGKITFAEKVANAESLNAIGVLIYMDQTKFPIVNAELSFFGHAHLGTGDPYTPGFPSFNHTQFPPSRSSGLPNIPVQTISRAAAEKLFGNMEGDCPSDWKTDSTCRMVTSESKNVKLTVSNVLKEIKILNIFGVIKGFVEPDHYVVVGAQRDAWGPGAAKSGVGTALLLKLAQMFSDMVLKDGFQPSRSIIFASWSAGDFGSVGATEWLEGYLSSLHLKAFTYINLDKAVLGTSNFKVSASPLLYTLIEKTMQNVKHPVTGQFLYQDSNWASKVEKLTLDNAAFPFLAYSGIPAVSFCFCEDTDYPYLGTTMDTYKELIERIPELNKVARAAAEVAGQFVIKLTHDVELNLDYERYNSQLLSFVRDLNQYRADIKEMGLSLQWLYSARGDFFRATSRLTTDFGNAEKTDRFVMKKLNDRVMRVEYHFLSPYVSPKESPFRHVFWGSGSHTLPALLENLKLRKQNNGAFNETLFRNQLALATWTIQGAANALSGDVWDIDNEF

B1: ^68Ga-NOTA-TR01 (peptide)
peptide: AVFVWNYYIIRRYYCK
modifications: cyclo(Ac-Ala1 ... Cys15) as printed; N-terminal Ac; NMe-Tyr at position 14; PEG12 between Cys15 and the C-terminal Lys; NOTA on the Lys, holding ^68Ga
On to B1, for which, in assay [1], the “biodistribution: tumor-to-muscle (T/M) ratio in HT29 tumor-bearing mice, 30 to 120 min postinjection (3.73, 5.10, 9.18)” value is 9.18; the “biodistribution: tumor-to-muscle (T/M) ratio in LOVO-bearing mice (low TfR1), 30 to 120 min postinjection (2.30, 3.16, 5.01)” value was determined as 5.01; the “tumor-to-muscle (T/M) ratio in HT29 xenografts by micro-PET/CT with coinjection of excess unlabeled NOTA-TR01, 30 to 120 min (0.47, 0.45, 0.86)” value turned out to be 0.86; the “tumor-to-muscle (T/M) ratio in HT29 xenografts by micro-PET/CT, 30 to 120 min postinjection (2.79, 3.98, 7.88)” value came out at 7.88. Further, the “tumor-to-muscle (T/M) ratio in LOVO xenografts (low TfR1) by micro-PET/CT, 30 to 120 min postinjection (1.65, 2.30, 2.94)” value in assay [1] was determined as 2.94.

B2: NOTA-TR01 [cyclo(Ac-Ala-Val-Phe-Val-Trp-Asn-Tyr-Tyr-Ile-Ile-Arg-Arg-Tyr-NMe-Tyr-Cys)-PEG12-Lys-NOTA] (peptide)
peptide: AVFVWNYYIIRRYYCK
modifications: cyclo(Ac-Ala1 ... Cys15) as printed; N-terminal Ac; NMe-Tyr at position 14; PEG12 between Cys15 and the C-terminal Lys; NOTA on the Lys
notes: the 15-residue macrocycle, printed in three-letter code; position 14 is N-methyl-Tyr; C-terminal Lys that carries NOTA; joined to Cys15 through a PEG12 spacer (no amino acids); a thioether from an N-terminal chloroacetyl group is only surmised; also called unlabeled TR01; unlabeled NOTA-TR01; source: synthetic peptide, custom synthesized by A+ Peptide (Shanghai, China), >95% purity
As to B2, in assay [2], the Kd stood at 22.3 nM, the koff was 0.00173 s⁻¹ and the kon was determined as 77300 M⁻¹ s⁻¹.
